Source: doi:10.1101/2022.06.10.495428

Legend:
[1] = biological target: Influenza A/Zhejiang/DTID-ZJU01/2013 (H7N9) polymerase heterotrimer (influenza A/Zhejiang/DTID-ZJU01/2013 (H7N9)) (UniProt M9TI86); assay: cryo-EM structure
[2] = biological target: Influenza A/Zhejiang/DTID-ZJU01/2013 (H7N9) polymerase heterotrimer (influenza A/Zhejiang/DTID-ZJU01/2013 (H7N9)) (UniProt M9TI86); assay: SEC-MALS

“Influenza A/Zhejiang/DTID-ZJU01/2013 (H7N9) polymerase heterotrimer (from UniProt M9TI86;M9TLW3;X5F427) (complex)” gave a stoichiometry N [1] of 2 and a stoichiometry N [2] of 2.
